In article PMC9482650, “Quantitative fragmentomics allow affinity mapping of interactomes” (Nature Communications, 2022):

T1: DVL3, Q92997
T1 sequence (Q92997 244-331, limits assumed, looked up): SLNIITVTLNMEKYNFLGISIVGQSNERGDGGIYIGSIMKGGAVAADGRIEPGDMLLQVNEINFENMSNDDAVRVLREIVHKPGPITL

T2: APBA2_1, Q99767
T2 sequence (Q99767 563-664, limits assumed, looked up): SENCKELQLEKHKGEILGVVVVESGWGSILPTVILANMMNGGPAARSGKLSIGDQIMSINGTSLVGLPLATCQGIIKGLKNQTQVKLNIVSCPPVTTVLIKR

T3: ARHGAP21, Q5T5U3
T3 sequence (Q5T5U3 45-169, limits assumed, looked up): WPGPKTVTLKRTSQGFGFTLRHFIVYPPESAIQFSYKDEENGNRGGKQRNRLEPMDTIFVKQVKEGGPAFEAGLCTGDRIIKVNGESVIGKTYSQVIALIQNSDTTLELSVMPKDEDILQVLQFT

T4: SNTB1, Q13884
T4 sequence (Q13884 107-205, limits assumed, looked up): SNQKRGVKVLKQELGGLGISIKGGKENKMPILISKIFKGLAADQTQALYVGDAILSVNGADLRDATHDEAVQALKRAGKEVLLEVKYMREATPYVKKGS

T5: PDZD7_3, Q9H5P4
T5 sequence (Q9H5P4 857-944, limits assumed, looked up): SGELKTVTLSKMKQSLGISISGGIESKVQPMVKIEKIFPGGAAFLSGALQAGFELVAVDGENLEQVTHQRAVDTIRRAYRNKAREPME

T6: GRIP1_5, Q9Y3R0
T6 sequence (Q9Y3R0 568-668, limits assumed, looked up): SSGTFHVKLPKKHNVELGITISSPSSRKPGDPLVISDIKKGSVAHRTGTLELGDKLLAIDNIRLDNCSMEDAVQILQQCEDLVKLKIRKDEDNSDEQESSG

T7: APBA3_1, O96018
T7 sequence (O96018 389-490, limits assumed, looked up): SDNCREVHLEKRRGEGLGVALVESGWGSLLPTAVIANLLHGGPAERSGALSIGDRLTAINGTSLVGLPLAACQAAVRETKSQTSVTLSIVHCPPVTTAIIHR

T8: DLG3_1, Q92796
T8 sequence (Q92796 125-227, limits assumed, looked up): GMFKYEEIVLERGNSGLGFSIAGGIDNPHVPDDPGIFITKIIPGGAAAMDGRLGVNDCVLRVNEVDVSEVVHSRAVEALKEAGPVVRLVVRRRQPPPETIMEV

T9: DLG3_2, Q92796
T9 sequence (Q92796 221-321, limits assumed, looked up): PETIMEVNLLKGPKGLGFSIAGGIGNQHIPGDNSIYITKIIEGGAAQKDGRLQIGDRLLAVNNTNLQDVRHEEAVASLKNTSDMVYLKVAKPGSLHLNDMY

T10: FRMPD1, Q5SYB0
T10 sequence (Q5SYB0 52-145, limits assumed, looked up): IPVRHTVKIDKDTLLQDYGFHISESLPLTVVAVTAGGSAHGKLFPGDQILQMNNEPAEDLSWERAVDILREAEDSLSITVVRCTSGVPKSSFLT

T11: TJP3_3, O95049
T11 sequence (O95049 375-456, limits assumed, looked up): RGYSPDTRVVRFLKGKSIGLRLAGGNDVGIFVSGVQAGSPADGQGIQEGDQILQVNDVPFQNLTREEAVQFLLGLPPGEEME

T12: SHANK1, Q9Y566
T12 sequence (Q9Y566 658-767, limits assumed, looked up): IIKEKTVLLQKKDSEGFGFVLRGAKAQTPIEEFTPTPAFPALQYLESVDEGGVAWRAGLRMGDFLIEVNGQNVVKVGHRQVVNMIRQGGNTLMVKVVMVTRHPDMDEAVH

T13: SYNJ2BP, P57105
T13 sequence (P57105 8-110, limits assumed, looked up): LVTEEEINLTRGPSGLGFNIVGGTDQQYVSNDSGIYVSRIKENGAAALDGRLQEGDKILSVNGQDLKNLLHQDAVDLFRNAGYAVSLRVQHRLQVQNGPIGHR


Target: T1, DVL3, Q92997
Experiment: holdup assay
Design: key: below the threshold = too weak to quantify, mostly under pKd 3.1 to 4
Conditions: plain residues with an end cap or a label only (N-terminal biotin on a linker: ado-ado)

pKd | Binder
below the threshold | LLQEEWETVM [PTH1R, Q03431]

Target: T2, APBA2_1, Q99767
Experiment: holdup assay
Design: key: below the threshold = too weak to quantify, mostly under pKd 3.1 to 4
Conditions: plain residues with an end cap or a label only (N-terminal biotin on a linker: ado-ado)

pKd | Binder
below the threshold | LLQEEWETVM [PTH1R, Q03431]

Target: Inadl_6, Q8NI35
Sequence (Q8NI35 1058-1167): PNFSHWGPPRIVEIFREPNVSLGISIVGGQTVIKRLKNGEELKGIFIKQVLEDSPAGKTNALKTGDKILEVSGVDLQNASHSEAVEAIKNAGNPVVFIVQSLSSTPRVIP
Experiment: holdup assay
Design: key: below the threshold = too weak to quantify, mostly under pKd 3.1 to 4
Conditions: plain residues with an end cap or a label only (N-terminal biotin on a linker: ado-ado)

pKd | Binder
4.12 | LLQEEWETVM [PTH1R, Q03431]

Target: T3, ARHGAP21, Q5T5U3
Experiment: holdup assay
Design: key: below the threshold = too weak to quantify, mostly under pKd 3.1 to 4
Conditions: plain residues with an end cap or a label only (N-terminal biotin on a linker: ado-ado)

pKd | Binder
4.11 | LLQEEWETVM [PTH1R, Q03431]

Target: GRID2IP_2, A4D2P6
Sequence (A4D2P6 272-370): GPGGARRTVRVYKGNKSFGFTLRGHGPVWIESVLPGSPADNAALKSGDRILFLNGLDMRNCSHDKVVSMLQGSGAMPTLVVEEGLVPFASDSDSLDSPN
Experiment: holdup assay
Design: key: below the threshold = too weak to quantify, mostly under pKd 3.1 to 4
Conditions: plain residues with an end cap or a label only (N-terminal biotin on a linker: ado-ado)

pKd | Binder
4.11 | LLQEEWETVM [PTH1R, Q03431]

Target: GRIP2_4, Q9C0E4
Sequence (Q9C0E4 446-548): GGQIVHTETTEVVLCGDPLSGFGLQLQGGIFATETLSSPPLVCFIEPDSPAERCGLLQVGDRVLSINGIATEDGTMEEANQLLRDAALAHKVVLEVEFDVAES
Experiment: holdup assay
Design: key: below the threshold = too weak to quantify, mostly under pKd 3.1 to 4
Conditions: plain residues with an end cap or a label only (N-terminal biotin on a linker: ado-ado)

pKd | Binder
below the threshold | LLQEEWETVM [PTH1R, Q03431]

Target: T4, SNTB1, Q13884
Experiment: holdup assay
Design: key: below the threshold = too weak to quantify, mostly under pKd 3.1 to 4
Conditions: plain residues with an end cap or a label only (N-terminal biotin on a linker: ado-ado)

pKd | Binder
4.24 | LLQEEWETVM [PTH1R, Q03431]

Target: HTRA1, Q92743
Sequence (Q92743 360-477): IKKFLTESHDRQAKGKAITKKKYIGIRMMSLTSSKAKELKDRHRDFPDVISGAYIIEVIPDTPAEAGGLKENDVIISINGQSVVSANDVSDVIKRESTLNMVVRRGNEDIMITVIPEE
Experiment: holdup assay
Design: key: below the threshold = too weak to quantify, mostly under pKd 3.1 to 4
Conditions: plain residues with an end cap or a label only (N-terminal biotin on a linker: ado-ado)

pKd | Binder
4.68 | LLQEEWETVM [PTH1R, Q03431]

Target: T5, PDZD7_3, Q9H5P4
Experiment: holdup assay
Design: key: below the threshold = too weak to quantify, mostly under pKd 3.1 to 4
Conditions: plain residues with an end cap or a label only (N-terminal biotin on a linker: ado-ado)

pKd | Binder
4.45 | LLQEEWETVM [PTH1R, Q03431]

Target: Inadl_4, Q8NI35
Sequence (Q8NI35 547-651): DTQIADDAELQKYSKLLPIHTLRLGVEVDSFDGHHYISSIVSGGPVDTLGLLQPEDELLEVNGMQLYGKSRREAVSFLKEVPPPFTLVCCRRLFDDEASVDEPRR
Experiment: holdup assay
Design: key: below the threshold = too weak to quantify, mostly under pKd 3.1 to 4
Conditions: plain residues with an end cap or a label only (N-terminal biotin on a linker: ado-ado)

pKd | Binder
below the threshold | LLQEEWETVM [PTH1R, Q03431]

Target: MAGI2_6, Q86UL8
Sequence (Q86UL8 1141-1229): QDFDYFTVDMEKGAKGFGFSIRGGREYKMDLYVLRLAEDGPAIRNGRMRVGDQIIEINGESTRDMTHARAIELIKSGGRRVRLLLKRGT
Experiment: holdup assay
Design: key: below the threshold = too weak to quantify, mostly under pKd 3.1 to 4
Conditions: plain residues with an end cap or a label only (N-terminal biotin on a linker: ado-ado)

pKd | Binder
3.75 | LLQEEWETVM [PTH1R, Q03431]

Target: SCRIB_2, Q14160
Sequence (Q14160 857-960): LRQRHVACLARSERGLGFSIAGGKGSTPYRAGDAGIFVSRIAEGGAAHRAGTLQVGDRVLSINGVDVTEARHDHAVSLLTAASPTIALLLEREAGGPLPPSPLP
Experiment: holdup assay
Design: key: below the threshold = too weak to quantify, mostly under pKd 3.1 to 4
Conditions: plain residues with an end cap or a label only (N-terminal biotin on a linker: ado-ado)

pKd | Binder
below the threshold | LLQEEWETVM [PTH1R, Q03431]

Target: MAGI2_5, Q86UL8
Sequence (Q86UL8 915-1017): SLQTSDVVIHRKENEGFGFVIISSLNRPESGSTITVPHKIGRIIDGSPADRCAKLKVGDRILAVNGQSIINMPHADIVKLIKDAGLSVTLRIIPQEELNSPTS
Experiment: holdup assay
Design: key: below the threshold = too weak to quantify, mostly under pKd 3.1 to 4
Conditions: plain residues with an end cap or a label only (N-terminal biotin on a linker: ado-ado)

pKd | Binder
4.4 | LLQEEWETVM [PTH1R, Q03431]

Target: PDLIM1, O00151
Sequence (O00151 1-87): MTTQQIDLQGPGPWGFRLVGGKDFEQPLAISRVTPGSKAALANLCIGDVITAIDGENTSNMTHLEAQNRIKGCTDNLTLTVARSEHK
Experiment: holdup assay
Design: key: below the threshold = too weak to quantify, mostly under pKd 3.1 to 4
Conditions: plain residues with an end cap or a label only (N-terminal biotin on a linker: ado-ado)

pKd | Binder
below the threshold | LLQEEWETVM [PTH1R, Q03431]

Target: T6, GRIP1_5, Q9Y3R0
Experiment: holdup assay
Design: key: below the threshold = too weak to quantify, mostly under pKd 3.1 to 4
Conditions: plain residues with an end cap or a label only (N-terminal biotin on a linker: ado-ado)

pKd | Binder
below the threshold | LLQEEWETVM [PTH1R, Q03431]

Target: T7, APBA3_1, O96018
Experiment: holdup assay
Design: key: below the threshold = too weak to quantify, mostly under pKd 3.1 to 4
Conditions: plain residues with an end cap or a label only (N-terminal biotin on a linker: ado-ado)

pKd | Binder
below the threshold | LLQEEWETVM [PTH1R, Q03431]

Target: T8, DLG3_1, Q92796
Experiment: holdup assay
Design: key: below the threshold = too weak to quantify, mostly under pKd 3.1 to 4
Conditions: plain residues with an end cap or a label only (N-terminal biotin on a linker: ado-ado)

pKd | Binder
below the threshold | LLQEEWETVM [PTH1R, Q03431]

Target: DLG1_2, Q12959
Sequence (Q12959 314-412): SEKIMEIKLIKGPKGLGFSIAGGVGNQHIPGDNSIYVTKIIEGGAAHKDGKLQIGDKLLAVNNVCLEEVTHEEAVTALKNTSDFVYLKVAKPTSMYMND
Experiment: holdup assay
Design: key: below the threshold = too weak to quantify, mostly under pKd 3.1 to 4
Conditions: plain residues with an end cap or a label only (N-terminal biotin on a linker: ado-ado)

pKd | Binder
below the threshold | LLQEEWETVM [PTH1R, Q03431]

Target: MAST1, Q9Y2H9
Sequence (Q9Y2H9 962-1065): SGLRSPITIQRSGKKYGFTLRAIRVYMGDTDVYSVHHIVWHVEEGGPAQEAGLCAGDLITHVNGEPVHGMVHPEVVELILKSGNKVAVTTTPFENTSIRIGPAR
Experiment: holdup assay
Design: key: below the threshold = too weak to quantify, mostly under pKd 3.1 to 4
Conditions: plain residues with an end cap or a label only (N-terminal biotin on a linker: ado-ado)

pKd | Binder
5.01 | LLQEEWETVM [PTH1R, Q03431]

Target: T9, DLG3_2, Q92796
Experiment: holdup assay
Design: key: below the threshold = too weak to quantify, mostly under pKd 3.1 to 4
Conditions: plain residues with an end cap or a label only (N-terminal biotin on a linker: ado-ado)

pKd | Binder
below the threshold | LLQEEWETVM [PTH1R, Q03431]

Target: T10, FRMPD1, Q5SYB0
Experiment: holdup assay
Design: key: below the threshold = too weak to quantify, mostly under pKd 3.1 to 4
Conditions: plain residues with an end cap or a label only (N-terminal biotin on a linker: ado-ado)

pKd | Binder
below the threshold | LLQEEWETVM [PTH1R, Q03431]

Target: T11, TJP3_3, O95049
Experiment: holdup assay
Design: key: below the threshold = too weak to quantify, mostly under pKd 3.1 to 4
Conditions: plain residues with an end cap or a label only (N-terminal biotin on a linker: ado-ado)

pKd | Binder
below the threshold | LLQEEWETVM [PTH1R, Q03431]

Target: T12, SHANK1, Q9Y566
Experiment: holdup assay
Design: key: below the threshold = too weak to quantify, mostly under pKd 3.1 to 4
Conditions: plain residues with an end cap or a label only (N-terminal biotin on a linker: ado-ado)

pKd | Binder
4.85 | LLQEEWETVM [PTH1R, Q03431]

Target: T13, SYNJ2BP, P57105
Experiment: holdup assay
Design: key: below the threshold = too weak to quantify, mostly under pKd 3.1 to 4
Conditions: plain residues with an end cap or a label only (N-terminal biotin on a linker: ado-ado)

pKd | Binder
below the threshold | LLQEEWETVM [PTH1R, Q03431]
